Source: US20060287501A1 (Pieris, published 2006)
Positions count from the first letter of the chain named. Numbers in names are those of the source.

T1: recombinant Nogo-A fragment NI-Fr2 (rat, UniProt Q9JK11 233-941, labelled with digoxigenin (molar ratio 5:1) in the colony screening assay)
T1 construct: Truncated rat Nogo-A with C-terminal Strep-tag, made in the E. coli periplasm; also called MI-Fr2; wild-type NI-Fr2
T1 sequence: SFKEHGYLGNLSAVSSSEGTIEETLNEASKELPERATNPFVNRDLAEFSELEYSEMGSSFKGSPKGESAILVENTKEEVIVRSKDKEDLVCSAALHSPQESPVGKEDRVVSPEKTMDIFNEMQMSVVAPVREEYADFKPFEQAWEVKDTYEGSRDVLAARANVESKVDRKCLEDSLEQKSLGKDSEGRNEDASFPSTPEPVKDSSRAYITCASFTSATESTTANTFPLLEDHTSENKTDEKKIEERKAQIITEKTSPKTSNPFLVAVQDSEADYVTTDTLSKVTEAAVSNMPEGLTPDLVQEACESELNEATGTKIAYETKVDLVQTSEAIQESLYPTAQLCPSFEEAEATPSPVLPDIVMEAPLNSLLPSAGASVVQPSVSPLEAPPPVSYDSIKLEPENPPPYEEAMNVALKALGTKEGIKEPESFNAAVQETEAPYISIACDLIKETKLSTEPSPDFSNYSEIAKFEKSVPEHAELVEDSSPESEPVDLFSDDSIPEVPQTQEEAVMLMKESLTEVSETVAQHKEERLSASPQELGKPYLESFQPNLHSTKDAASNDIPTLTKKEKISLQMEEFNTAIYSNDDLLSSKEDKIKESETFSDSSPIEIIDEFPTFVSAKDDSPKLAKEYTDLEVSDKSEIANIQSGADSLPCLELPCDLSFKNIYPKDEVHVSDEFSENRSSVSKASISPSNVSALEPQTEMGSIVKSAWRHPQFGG

T2: mutant of NI-Fr2 devoid of Cys^574 and Cys^676 (rat, UniProt Q9JK11 233-940, labelled with digoxigenin in the colony screening assay)
T2 sequence: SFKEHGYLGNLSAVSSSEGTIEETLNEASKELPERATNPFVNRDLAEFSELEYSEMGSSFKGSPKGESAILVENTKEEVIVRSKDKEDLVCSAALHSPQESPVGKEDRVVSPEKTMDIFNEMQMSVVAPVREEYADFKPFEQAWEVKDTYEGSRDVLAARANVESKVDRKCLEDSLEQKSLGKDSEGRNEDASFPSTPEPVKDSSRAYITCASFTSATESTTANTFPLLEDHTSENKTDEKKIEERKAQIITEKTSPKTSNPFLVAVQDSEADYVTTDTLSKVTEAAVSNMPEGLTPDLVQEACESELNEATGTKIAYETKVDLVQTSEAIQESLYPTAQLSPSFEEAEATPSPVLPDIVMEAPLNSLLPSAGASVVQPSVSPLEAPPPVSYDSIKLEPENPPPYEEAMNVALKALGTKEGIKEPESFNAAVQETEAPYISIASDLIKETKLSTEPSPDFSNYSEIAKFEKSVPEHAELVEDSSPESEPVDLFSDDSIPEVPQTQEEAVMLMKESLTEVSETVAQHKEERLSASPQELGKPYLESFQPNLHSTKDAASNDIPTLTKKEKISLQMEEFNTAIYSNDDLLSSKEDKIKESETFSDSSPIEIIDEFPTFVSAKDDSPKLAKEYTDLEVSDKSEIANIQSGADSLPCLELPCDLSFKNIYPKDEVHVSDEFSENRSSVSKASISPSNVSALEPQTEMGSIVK

B1: I.1.6 Fab fragment (IN-1 mutant) (Fab, V domains shown)
VH: EVKLHESGPGLVRPGTSVKISCKASGYTFTNYWLGWVKQRPGHGLEWIGDIYPGGGYTNYNEKFKGKATLTADTSSSTAYMQLSSLTSEDSAVYFCARFYYGSSYWYFDVWGQGTTVTVSS
VL: DIELTQSPAIMAASVGETVTITCGASENIYGALNWYQRKQGKSPQLLIYGATNLADGMSSRFSGSGSGRQYSLKISSLHPDDVATYYCQNVLNLPCTFGAGTKLEIK
notes: Chimeric Fab, human IgG1/kappa constant domains
B2: I.2.5 Fab fragment (IN-1 mutant) (Fab, V domains shown)
VH: B1 VH
VL: B1 VL with N93P, L94C, C96V
notes: as for B1
B3: II.1.7 Fab fragment (Fab, V domains shown)
VH: B1 VH
VL: B1 VL with V91L, L92K, N93R, L94V, C96V
notes: as for B1
B4: I.1.11 Fab fragment (IN-1 mutant) (Fab, V domains shown)
VH: B1 VH
VL: B1 VL with N93Y, L94T
notes: as for B1
B5: II.1.3 Fab fragment (Fab, V domains shown)
VH: B1 VH
VL: B1 VL with V91M, L92K, N93R, L94V, C96V
notes: as for B1
B6: I.2.6 Fab fragment with Cys L96 replaced by Ala (Fab, V domains shown)
VH: B1 VH
VL: B1 VL with N93R, L94V, C96A
notes: as for B1
B7: I.2.6 Fab fragment with Cys L96 replaced by Met (Fab, V domains shown)
VH: B1 VH
VL: B1 VL with N93R, L94V, C96M
notes: as for B1
B8: II.1.1 Fab fragment (Fab, V domains shown)
VH: B1 VH
VL: B1 VL with V91R, L92K, N93R, L94V, C96V
notes: as for B1
B9: I.4.4 Fab fragment (IN-1 mutant) (Fab, V domains shown)
VH: B1 VH
VL: B1 VL with N93D, L94R, C96L
notes: as for B1
B10: I.2.4 Fab fragment (IN-1 mutant) (Fab, V domains shown)
VH: B1 VH
VL: B1 VL with N93G, L94T, C96F
notes: as for B1
B11: I.2.6 Fab fragment with Cys L96 replaced by Leu (Fab, V domains shown)
VH: B1 VH
VL: B1 VL with N93R, L94V, C96L
notes: as for B1
B12: I.2.6 Fab fragment with Cys L96 replaced by Ile (Fab, V domains shown)
VH: B1 VH
VL: B1 VL with N93R, L94V, C96I
notes: as for B1
B13: I.2.6(L96V) Fab fragment (Fab, V domains shown)
VH: B1 VH
VL: B1 VL with N93R, L94V, C96V
notes: Chimeric Fab, human IgG1/kappa constant domains; also called I.2.6(^L96Val) Fab fragment; replacement Cys^L96->Val

Experiments:
[1] = molecular target: T1, recombinant Nogo-A fragment NI-Fr2; assay: filter-sandwich colony screening assay; Fab-ABD (pASK106) captured on HSA membrane, digoxigenin-labelled NI-Fr2
Procedure: The mutagenized gene fragment was recloned on the expression vector pASK106-IN1 (encoding a Fab fragment fused with an albumin-binding domain to the C-terminus of its light chain; König and Skerra, supra). E. coli JM83 was transformed with the ligation mixture and transformed cells harboring the pASK106 vector were plated on a hydrophilic membrane (GVWP, 0.22 μm; Millipore, Bedford, Mass.), placed on a petri dish with LB/Amp agar, such that approximately 500 colonies were obtained, and incubated at 37° C. for 8 to 9 h. In the meantime a hydrophobic membrane (Immobilon-P, 0.45 μm; Millipore) was coated with 10 mg/ml human serum albumin (HSA; Sigma, Deisenhofen, Germany) in PBS for four hours and blocked with 3% (w/v) BSA (Roth, Karlsruhe, Germany), 0.5% (v/v) Tween 20 in PBS. The membrane was washed twice with PBS, soaked in LB/Amp containing […], and placed on an LB/Amp agar plate supplemented with […]. The first membrane, carrying tiny colonies of the transformed cells, was then placed onto the second (hydrophobic) membrane. The filter sandwich was incubated for 16 h at 22° C. During this period the mutated IN-1 Fab fragments became secreted—and partially released from the colonies by leakage from the bacterial periplasm—and finally immobilized on the lower membrane via complex formation between HSA and ABD.
(§1) The first membrane with the still viable colonies was transferred to a fresh LB/Amp agar plate and stored at 4° C. The second membrane was washed three times in PBS containing 0.1% (v/v) Tween 20 (PBS/T) and the immobilized Fab fragments, each in a spot 30 corresponding to the position of the original colony, were probed for antigen binding. To this end recombinant Nogo-A fragment NI-FR2 was labeled at a molar ratio of 5:1 with digoxigenin-3-O-methylcarbonyl-e-aminocaproic acid N-hydroxy-succinimide ester (Roche Diagnostics, Mannheim, Germany) and applied to the membrane for one hour at a concentration of 30 or 50 μg/ml in PBS/T. After washing three times with PBS/T the membrane was incubated for one hour with 0.75 u/ml anti-digoxigenin Fab fragment conjugated with alkaline phosphatase (Roche Diagnostics) in 10 ml PBS/T. The membrane was finally washed twice with PBS/T and twice with PBS and the signals were developed using standard chromogenic substrates as described (Schlehuber et al., supra).

[2] = molecular target: T2, mutant of NI-Fr2 devoid of Cys^574 and …; assay: filter-sandwich colony screening assay; Fab-ABD (pASK106) captured on HSA membrane, labelled NI-Fr2 mutant (no Cys574, Cys676) at 30 µg/ml
Procedure: The first membrane, carrying tiny colonies of the transformed cells, was then placed onto the second (hydrophobic) membrane. The filter sandwich was incubated for 16 h at 22° C. During this period the mutated IN-1 Fab fragments became secreted—and partially released from the colonies by leakage from the bacterial periplasm—and finally immobilized on the lower membrane via complex formation between HSA and ABD.
as §1, with “supra). Colonies corresponding to signals with an intensity above average were identified, recovered from the first membrane, and propagated for further analysis of their recombinant gene product.” for “supra).”
CDR-L3 forms a connecting loop between two neighboring beta-strands such that the positions L91 and L92 are in close spatial proximity with L96. […] This time the stringency of selection was raised by lowering the concentration of the recombinant antigen - a mutant of NI-Fr2 devoid of Cys⁵⁷⁴ and Cys⁶⁷⁶—from 50 μg/ml to 30 μg/ml.

[3] = molecular target: T1, recombinant Nogo-A fragment NI-Fr2; assay: ELISA; NI-Fr2 coated
Procedure: (§2) ELISA was carried out in a 96 well microtitre plate (Becton Dickinson, Heidelberg, Germany) at ambient temperature with incubation steps of 1 h unless otherwise stated. Three washing steps with PBS/T were used after each incubation, and residual liquid was removed thoroughly. The wells were coated for 4 h with 50 μl of a solution of MI-Fr2 at concentrations between 180 and 200 μg/ml in PBS buffer and then blocked with 200 μl 3% (w/v) BSA, 0.5% (v/v) Tween 20 in PBS. After washing, 50 μl of the purified recombinant Fab fragment was applied at a dilution series in PBS/T. The wells were then incubated with 50 μl anti-human Cκ antibody conjugated with alkaline phosphatase (Sigma), diluted 1:1000 in PBS/T. Signals were finally developed in the presence of p-nitrophenyl phosphate (Voss and Skerra, (1997) Protein Eng., 10, 975-982). Enzymatic activity was measured at 25° C. as the change in absorbance at 405 nm per min with a SpectraMAX 250 instrument (Molecular Devices, Sunnyvale, Calif.). The data were corrected for background values determined in wells that were merely coated with BSA and fitted by non-linear least squares regression as described by Voss and Skerra, supra
Unfortunately, the I.2.6 mutant of the IN-1 Fab fragment was produced as a soluble protein in E. coli at a much lower level, with a relative yield of 5% after purification (0.04 mg L⁻¹ OD⁻¹ vs. 0.8 mg L⁻¹ OD⁻¹ for the wild-type IN-1 Fab fragment). […] Following earlier substitution experiments concerning position L96 (cf. above) attempts were made to replace the Cys residue in the I.2.6 mutant by small apolar side chains such as those of Ala, Val, Met, Leu, and Ile. The substitutions were introduced by site-directed mutagenesis and all corresponding recombinant Fab fragments were produced and purified as before, resulting in yields that were similar again to the wild type IN-1 Fab fragment.

[4] = molecular target: T1, recombinant Nogo-A fragment NI-Fr2; assay: ELISA, wells coated with NI-Fr2, bound Fab detected with anti-human Ckappa antibody-alkaline phosphatase, delta A405/delta t
Procedure: Antigen-binding activity of the mutant Fab fragments was subsequently tested by ELISA using the recombinant NI-Fr2 for coating of the microtitre plate wells (FIG. 2).
as §2

| Binder | binding result [1] | binding result [3] | other results |
| --- | --- | --- | --- |
| B1 | binds | – | – |
| B2 | binds | – | – |
| B3 | – | – | binding result [2]: binds |
| B4 | binds | – | – |
| B5 | – | – | binding result [2]: binds |
| B6 | – | no binding | – |
| B7 | – | no binding | – |
| B8 | – | – | binding result [2]: binds |
| B9 | binds | – | – |
| B10 | binds | – | – |
| B11 | – | no binding | – |
| B12 | – | no binding | – |
| B13 | – | – | binding result [4]: binds |
